Results from patent US20260070976A1 (Alector, published 2026).

Key:
[1] = target: T1, cell surface PILRA on human monocytes (human, UniProt Q9UKJ1 20-303); test: cell-based or functional assay
recombinant human PILRA [2] = target: T2, recombinant human PILRA (human, UniProt Q9UKJ1 20-197); test: SPR, Biacore T200, antibody captured by anti-Fab
Protocol: (§1) A subset of these antibodies was further evaluated using the Biacore T200 (Cytiva). Anti-PILRA antibodies were diluted to 10 μg/mL and captured using an anti-Fab (Cytiva, #28958325) surface on a CM4 chip, that was prepared by amine coupling according to the manufacturer's protocol. Human PILRA and cynomolgus PILRB were diluted in running buffer to 130 nM, and diluted 4-fold serially, twice, to 8 nM. Human PILRB was similarly diluted from 260 nM to 16 nM. These analytes were injected and allowed 2 minutes of association, followed by dissociation for 5 minutes.
(§2) Data were analyzed using Biacore evaluation software to generate kinetic constants. The equilibrium dissociation constants (KD) were calculated from the fitted association and dissociation rate constants (k-on and k-off) for each of the anti-PILRA antibodies. These Kn values are indicated with asterisks in Table 8 below.

recombinant human PILRB [3] = target: T3, recombinant human PILRB (human, UniProt Q9UKJ0 20-191); test: SPR, Carterra LSA, steady-state fit
T3 sequence (Q9UKJ0 20-191 limits assumed): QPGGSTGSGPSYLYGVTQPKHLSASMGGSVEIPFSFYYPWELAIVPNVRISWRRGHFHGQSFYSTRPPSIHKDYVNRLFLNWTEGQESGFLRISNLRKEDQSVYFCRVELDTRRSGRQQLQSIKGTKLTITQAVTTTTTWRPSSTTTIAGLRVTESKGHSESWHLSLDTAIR
Protocol: (§3) Binding kinetics of human anti-PILRA-IgG4 antibodies were evaluated by surface plasmon resonance (SPR) using a Carterra LSA instrument (Carterra, Salt Lake City, UT). Antibodies were immobilized in duplicate arrays onto an HC30M sensor chip (Carterra) by amine coupling according to the manufacturer's protocol. After priming the immobilized antibodies with HBS-EP+ (Teknova, Hollister, CA, #8022) running buffer with 0.5 mg/mL BSA (MP Biomedicals LLC, #820451), the immobilized antibodies were tested for their ability to bind to recombinant human PILRA (SEQ ID NO:1) and cynomolgus PILRA (SEQ ID NO:120) and to human PILRB (SEQ ID NO:105) and cynomolgus PILRB (SEQ ID NO:121).
(§4) For binding kinetics analysis, human and cynomolgus PILRA and PILRB analytes were diluted in running buffer to 440 to 470 nM, and diluted 3-fold serially five times, to 1.8 to 1.9 nM, and injected for five minutes over the entire chip using the single channel flow cell to measure association of binding to the immobilized antibodies. Dissociation of the analytes was measured for five minutes, followed by regeneration of the chip with two 30-second injections of 10 mM glycine pH 2.0.
For the human PILRB interactions, the binding was too weak and heterogenous for kinetic constants to be calculated in this assay. Therefore, steady-state affinities were estimated based on the binding level of each analyte concentration at the end of the injections.

[4] = target: T4, human PILRA G78 on HEK293F cells (human, UniProt Q9UKJ1 20-303); test: FACS on HEK293F cells, binding on human PILRA (hA) over human PILRB (hB)
T4 construct: also called hA; G78 OE
T4 sequence (Q9UKJ1 20-303 R78G): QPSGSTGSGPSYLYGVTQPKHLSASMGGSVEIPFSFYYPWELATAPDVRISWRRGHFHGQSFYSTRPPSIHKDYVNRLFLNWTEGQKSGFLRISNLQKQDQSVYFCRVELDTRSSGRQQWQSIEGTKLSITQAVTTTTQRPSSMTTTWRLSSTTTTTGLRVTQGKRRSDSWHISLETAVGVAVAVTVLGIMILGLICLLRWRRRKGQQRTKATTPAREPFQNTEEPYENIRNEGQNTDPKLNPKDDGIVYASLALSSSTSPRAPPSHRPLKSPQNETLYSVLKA
Protocol: (§5) Conditioned media samples containing the tested anti-PILRA antibodies were assessed for binding to HEK293F cells overexpressing human PILRA (hA), human PILRB (hB), and cynomolgus PILRA (cA) by FACS. The conditioned media containing the tested antibodies were incubated with the cells for 30 min at 4° C., washed twice, and then detected with goat anti-human IgG secondary antibody (Alexa Fluor 647) at 1:1000 dilution. The cells were analyzed by flow cytometry on FACS Canto II, and for all cell lines, the reported MFI values were calculated for each conditioned media. These antibodies were evaluated for nonspecific binding using a baculovirus particle (BVP) assay (Jain T., Sun T., Durand S., Hall A., Houston N. R., Nett J. H., Sharkey B., Bobrowicz B., Caffry L, Yu Y., et al. Biophysical properties of the clinical-stage antibody landscape. Proc. Natl. Acad. Sci. USA. 2017; 114:944-949. Doi: 10.1073/pnas.1616408114.). The BVP scores are listed in Table 9, and the higher the score the more nonspecific binding that occurred.

[5] = target: T4, human PILRA G78 on HEK293F cells; test: flow cytometry; HEK293F cells overexpressing human PILRA, goat anti-human IgG Alexa Fluor 647
Protocol: as §5

[6] = target: cynomolgus PILRA on HEK293F cells (cynomolgus monkey, UniProt A0A7N9CRU1 20-292); test: cA Kd of Table 9; method not stated (Example 8: HEK293F overexpressing cells, FACS)
Sequence of cynomolgus PILRA on HEK293F cells (A0A7N9CRU1 entry or part of it): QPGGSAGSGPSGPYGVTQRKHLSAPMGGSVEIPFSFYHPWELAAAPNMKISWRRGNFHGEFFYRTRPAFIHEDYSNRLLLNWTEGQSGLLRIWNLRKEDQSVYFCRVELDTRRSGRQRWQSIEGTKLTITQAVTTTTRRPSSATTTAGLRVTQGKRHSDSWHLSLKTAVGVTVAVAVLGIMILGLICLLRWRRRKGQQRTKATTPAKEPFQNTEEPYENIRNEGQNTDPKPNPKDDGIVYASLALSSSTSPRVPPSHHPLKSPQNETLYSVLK

recombinant human PILRA [7] = target: T2, recombinant human PILRA; test: SPR, Carterra LSA, antibody amine-coupled, kinetic fit
Protocol: as §3, §4

[8] = target: T5, recombinant cynomolgus PILRA (SEQ ID NO:120) (cynomolgus monkey); test: as above
T5 construct: also called cyno PILRA
T5 sequence (chain, as listed by the source limits assumed): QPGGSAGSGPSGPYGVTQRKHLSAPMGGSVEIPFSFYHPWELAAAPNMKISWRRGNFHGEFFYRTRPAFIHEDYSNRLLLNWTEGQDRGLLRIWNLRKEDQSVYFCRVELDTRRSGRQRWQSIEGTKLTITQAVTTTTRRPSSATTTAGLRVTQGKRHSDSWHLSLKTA
Protocol: as §3, §4

[9] = target: T4, human PILRA G78 on HEK293F cells; test: hA Kd of Table 9; method not stated (Example 8: HEK293F overexpressing cells, FACS)
[10] = target: T4, human PILRA G78 on HEK293F cells; test: flow cytometry blocking assay; antibody on HEK293F cells overexpressing human PILRA G78, then 5 ug/mL NPDC1 Fc as the blocked ligand; cell-bound NPDC1 Fc read as MFI
Protocol: A dose response curve of antibodies X0 (PA-29), X1, X2, X7, X11, X12, X13, X14, X16, X18, and X20 was assessed for modulating the binding of Neural Proliferation Differentiation and Control Protein 1 (NPDC1) Fc to 293 cells ectopically expressing human PILRA (HEK293F human PILRA G78 overexpressing cells). Conditioned media samples containing antibodies were incubated with human PILRA overexpressing cells for 30 minutes at 4° C., and then 5 μg/mL NPDC1 Fc was added to this mixture. After 30 minutes of incubation at 4° C., the cells were washed and cell-bound NPDC1 Fc was detected with anti-human IgG Alexa Fluor 647. The cells were analyzed by flow cytometry on FACS Canto II with the percentage of NPDC1 Fc binding in the presence of conditioned media relative to NPDC1 Fc binding alone was calculated. […] All tested antibodies decreased binding of NPDC1 to human PILRA.

[11] = target: T6, human PILRB on HEK293F cells (human, UniProt Q9UKJ0 20-227); test: hB Kd of Table 9; method not stated (Example 8: HEK293F overexpressing cells, FACS)
T6 construct: also called hB
T6 sequence (Q9UKJ0 20-227): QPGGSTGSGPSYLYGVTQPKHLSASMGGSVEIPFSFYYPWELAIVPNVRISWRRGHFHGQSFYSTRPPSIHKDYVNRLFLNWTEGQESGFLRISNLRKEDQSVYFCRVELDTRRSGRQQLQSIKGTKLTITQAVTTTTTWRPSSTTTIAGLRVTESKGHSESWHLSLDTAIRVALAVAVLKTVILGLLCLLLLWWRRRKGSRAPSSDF

[12] = target: T1, cell surface PILRA on human monocytes; test: flow cytometry; Alexa Fluor 647-conjugated antibody on human CD14+ monocytes, Fc receptors blocked, 30 min on ice
Protocol: (§6) Anti-human PILRA antibodies X0 (PA-29) and its affinity matured variants were tested for their abilities to bind cell surface PILRA on human and cynomolgus monocytes. CD14+ monocytes were isolated from healthy human donors using a RosetteSep Human Monocyte Enrichment Cocktail kit (StemCell). Cynomolgus white blood cells were collected from cynomolgus whole blood. In both human and cynomolgus samples, the Fc receptor on the tested monocytes was blocked and the monocytes were treated with Alexa Fluor 647-conjugated PILRA antibodies for 30 minutes on ice. A dose response curve of antibodies X0 (PA-29), X1, X2, X7, X11, X12, X13, X14, X16, X18, and X20 was tested for binding to cell surface PILRA in human and cynomolgus monocytes, and antibodies bound to PILRA in a dose response manner. In another sample of human donor monocytes, a dose response curve of antibodies X0 (PA-29), X1, X2, X11, X13, X18, X29 (PA-43), and X34 (A6) was tested for binding to cell surface PILRA in human and cynomolgus monocytes, and antibodies bound to PILRA in a dose response manner.

[13] = target: T1, cell surface PILRA on human monocytes; test: flow cytometry; Alexa Fluor 647-conjugated antibody on human CD14+ monocytes (second donor sample), Fc receptors blocked, 30 min on ice
Protocol: as §6

recombinant human PILRB [14] = target: T3, recombinant human PILRB; test: SPR, Biacore T200, antibody captured by anti-Fab
Protocol: as §1, §2

T1 sequence (Q9UKJ1 20-303): as the sequence (Q9UKJ1 20-303 R78G) above, with G59R counted along it
T2 sequence (Q9UKJ1 20-197 limits assumed): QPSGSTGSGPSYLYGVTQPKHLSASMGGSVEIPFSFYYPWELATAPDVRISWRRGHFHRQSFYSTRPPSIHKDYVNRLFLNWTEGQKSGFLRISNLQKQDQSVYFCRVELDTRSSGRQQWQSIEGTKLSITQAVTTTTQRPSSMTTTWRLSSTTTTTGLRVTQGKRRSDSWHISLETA

Hu Mono DR EC50 [1] | Kd (recombinant human PILRA [2]) | binding result (recombinant human PILRB [3]) | hA/hB binding ratio on HEK293F [4] | EC50 (read off the curve) [5] | Kd [6] | Kd (recombinant human PILRA [7]) | Kd [8] | Kd [9] | IC50 (read off the curve) [10] | Kd (recombinant human PILRB [3]) | Kd [11] | EC50 (read off the curve) [12] | EC50 (read off the curve) [13] | Kd (recombinant human PILRB [14]) | Binder
0.7 µg/mL | 294 nM | no binding | 108 | ~0.3 µg/mL | 192 nM | 233 nM | 17 nM | 78.7 nM | – | – | – | – | – | – | X0 (PA-29) (antibody, V domains shown, conditioned media in the HEK293F assays; also called parental X0 (PA-29) antibody; XO (PA-29)) VH: QVQLVQSGAEVKKPGSSVKVSCKASGYNFLNYDVNWVRQAPGQGLEWMGGIIPIFGTANYAQKFQGRVTITADESTSTAYMELSSLRSEDTAVYYCATGVGAGWFDPWGQGTLVTVSS VL: not shown
~0.02 µg/mL | – | – | 7.9 | – | 0.3 nM | 1.1 nM | 0.1 nM | 0.1 nM | ~0.02 µg/mL | 4 nM | 6.6 nM | ~0.1 µg/mL | – | – | X14 (antibody, human IgG4, V domains shown, conditioned media in the HEK293F assays) VH: QVQLVQSGAEVKKPGSSVKVSCKASGYNFLHYDVNWVRQAPGQGLEWMGGIIPIFGTANYAQKFQGRVTITADESTSTAYMELSSLRSEDTAVYYCATAVGAGWFDTWGQGTLVTVSS VL: DIVMTQSPDSLAVSLGERATINCKSSQSVYFSPNNKNYLAWYQQKPGQPPKLLIYWASTRESGVPDRFSGSGSGTDFTLTISSLQAEDVAVYYCQQYFEEPYTFGQGTRLEIK
0.02 µg/mL | 1.6 nM | – | 56.7 | ~0.3 µg/mL | 5.3 nM | 2.5 nM | 1.6 nM | 0.4 nM | ~0.07 µg/mL | 39 nM | 126 nM | ~0.2 µg/mL | ~0.1 µg/mL | 128 nM | X1 (antibody, V domains shown, conditioned media in the HEK293F assays) VH: QVQLVQSGAEVKKPGSSVKVSCKASGYNFLHYDVNWVRQAPGQGLEWMGGIIPIFGTANYAQKFQGRVTITADESTSTAYMELSSLRSEDTAVYYCATAVGAGWFDTWGQGTLVTVSS VL: not shown
0.9 µg/mL | – | – | 63 | – | 2 nM | 3.8 nM | 0.4 nM | 1.2 nM | ~0.08 µg/mL | 77 nM | – | ~0.2 µg/mL | – | – | X7 (antibody, human IgG4, V domains shown, conditioned media in the HEK293F assays) VH: QVQLVQSGAEVKKPGSSVKVSCKASGYNFLNYDVNWVRQAPGQGLEWMGGIIPIFGTANYAQKFQGRVTITADESTSTAYMELSSLRSEDTAVYYCATGVGAGWFDPWGQGTLVTVSS VL: DIVMTQSPDSLAVSLGERATINCKSSQSVFFDENNKNYLAWYQQKPGQPPKLLIYWASTRESGVPDRFSGSGSGTDFTLTISSLQAEDVAVYYCQQYFEEPYTFGQGTRLEIK
~0.02 µg/mL | – | – | 6.5 | ~0.5 µg/mL | 0.2 nM | 1.3 nM | 0.2 nM | 0.1 nM | – | 4 nM | 3.4 nM | – | ~0.1 µg/mL | – | X18 (antibody, human IgG4, V domains shown, conditioned media in the HEK293F assays) VH: QVQLVQSGAEVKKPGSSVKVSCKASGYNFLHYDVNWVRQAPGQGLEWMGGIIPIFGTANYAQKFQGRVTITADESTSTAYMELSSLRSEDTAVYYCATAVGAGWFDTWGQGTLVTVSS VL: DIVMTQSPDSLAVSLGERATINCKSSQSVWFDPNNKNYLAWYQQKPGQPPKLLIYWASTRESGVPDRFSGSGSGTDFTLTISSLQAEDVAVYYCQQYFEEPYTFGQGTRLEIK
~0.02 µg/mL | 0.3 nM | – | 14.4 | – | 0.3 nM | 1 nM | 0.2 nM | 0.1 nM | ~0.08 µg/mL | 12 nM | 36.7 nM | ~0.1 µg/mL | – | 28 nM | X12 (antibody, human IgG4, V domains shown, conditioned media in the HEK293F assays) VH: QVQLVQSGAEVKKPGSSVKVSCKASGYNFLHYDVNWVRQAPGQGLEWMGGIIPIFGTANYAQKFQGRVTITADESTSTAYMELSSLRSEDTAVYYCATAVGAGWFDTWGQGTLVTVSS VL: not shown
